Read-outs that look alike come from different tables or passages of the source.

Experimental findings from patent publication US20200199241A1 (Chugai, published 2020) are described below.

The target in one experiment is T1, mouse FcRn (mouse, UniProt Q61559 22-297; P01887 21-119, limits assumed).
T1 construct: also called mFcRn
T1 sequence (looked up) 1: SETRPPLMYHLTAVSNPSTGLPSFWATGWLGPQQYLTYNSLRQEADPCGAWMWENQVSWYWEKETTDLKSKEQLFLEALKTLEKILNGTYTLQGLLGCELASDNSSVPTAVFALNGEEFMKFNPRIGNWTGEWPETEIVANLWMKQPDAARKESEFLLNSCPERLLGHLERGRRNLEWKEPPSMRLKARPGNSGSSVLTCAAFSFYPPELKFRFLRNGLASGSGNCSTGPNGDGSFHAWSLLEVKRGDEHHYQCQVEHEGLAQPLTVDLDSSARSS
T1 sequence (looked up) 2: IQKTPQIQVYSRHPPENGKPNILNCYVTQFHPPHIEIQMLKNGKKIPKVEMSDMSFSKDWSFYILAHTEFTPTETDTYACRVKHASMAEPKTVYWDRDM
Put plainly: SPR, mouse FcRn, pH 7.0.

For experiment [1], the target named is T2, human FcγRIIb (human, UniProt P31994 43-217, limits assumed).
T2 construct: also called FcγIIB
T2 sequence: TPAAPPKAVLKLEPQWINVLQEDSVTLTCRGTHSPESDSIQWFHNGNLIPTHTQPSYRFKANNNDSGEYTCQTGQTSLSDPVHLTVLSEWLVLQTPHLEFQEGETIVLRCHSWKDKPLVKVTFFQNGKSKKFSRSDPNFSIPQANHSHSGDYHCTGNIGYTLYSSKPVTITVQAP
Put plainly: SPR (Biacore); ratio against IgG1.

Experiment [2] deals with T2, human FcγRIIb. Nature of the experiment: SPR (Biacore); KD for FcγRIIaR divided by KD for FcγRIIb of the same antibody.
Experiment [3] concerns the target T2, human FcγRIIb. Nature of the experiment: SPR (Biacore); KD for FcγRIIaH divided by KD for FcγRIIb of the same antibody.
Experiment [4] concerns the target T2, human FcγRIIb. Nature of the experiment: SPR (Biacore), antibody captured, FcγR as analyte.
Experiment [5] deals with T2, human FcγRIIb. Nature of the experiment: SPR (Biacore), antibody captured, FcγR as analyte. The source holds these as a separate data set.
Procedure: (§1) Next, interaction between these antibodies and FcγR was analyzed kinetically using the BIACORE™ T100 (GE Healthcare). The interaction was measured at a temperature of 25° C. using HBS-EP+ (GE Healthcare) for the running buffer. The Series S Sensor Chip CMS (GE Healthcare) was used after immobilizing Protein A by amine coupling. […] Antibody captured on the chip was washed by allowing 10 mM glycine-HCl (pH 1.5) to react following measurement. The chip regenerated in this manner was used repeatedly. The dissociation constant KD (mol/L) was calculated from the association rate constant ka (L/mol/s) and dissociation rate constant kd (l/s) as calculated by global-fitting the measurement results with a 1:1 Langmuir binding model using the BIACORE™ Evaluation Software.
For experiment [6], the target named is T3, human FcγRIIa type R (human, UniProt P12318 36-217).
T3 construct: also called FcγRIIaR; FcγRIIa(R)
T3 chain: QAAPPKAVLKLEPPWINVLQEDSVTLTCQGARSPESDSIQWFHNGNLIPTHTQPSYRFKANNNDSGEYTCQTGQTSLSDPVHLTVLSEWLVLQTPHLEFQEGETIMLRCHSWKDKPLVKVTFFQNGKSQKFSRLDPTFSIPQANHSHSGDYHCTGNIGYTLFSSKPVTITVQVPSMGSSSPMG
Nature of the experiment: SPR (Biacore), binding amount relative to IL6R-BF648/IL6R-L = 100.

Experiment [7] addresses T2, human FcγRIIb. The description is as above.
Experiment [8] addresses T4, human FcγRIa (human, UniProt P12314 16-292, limits assumed).
T4 construct: also called CD64
The experiment is described as above.

In experiment [9] the target is T5, human FcγRIIa type H (human, UniProt P12318 36-217).
T5 construct: also called FcγRIIaH; FcγRIIa(H)
T5 sequence: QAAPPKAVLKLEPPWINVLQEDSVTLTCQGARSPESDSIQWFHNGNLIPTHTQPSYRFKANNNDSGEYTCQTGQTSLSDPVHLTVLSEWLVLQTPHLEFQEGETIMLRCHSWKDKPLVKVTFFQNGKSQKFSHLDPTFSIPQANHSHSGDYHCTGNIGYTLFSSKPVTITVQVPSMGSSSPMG
The description is as above.

For experiment [10], the target named is T6, human FcγRIIIa type V (human, UniProt P08637 17-208, limits assumed).
T6 construct: also called FcγRIIIaV; FcγRIIIa(V)
T6 sequence (P08637 other isoform, or with tags, fused parts or gaps limits assumed): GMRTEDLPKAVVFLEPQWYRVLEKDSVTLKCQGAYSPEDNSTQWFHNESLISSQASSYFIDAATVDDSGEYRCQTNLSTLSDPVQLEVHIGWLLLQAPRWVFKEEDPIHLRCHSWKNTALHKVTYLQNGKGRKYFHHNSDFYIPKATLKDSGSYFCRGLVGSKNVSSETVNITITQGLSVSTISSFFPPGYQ
The experiment is described as above.

Experiment [11] addresses T2, human FcγRIIb. Nature of the experiment: SPR (Biacore); ratio against IgG1. This is another data set of the same source.
Procedure: as §1
Experiment [12] addresses T3, human FcγRIIa type R. Put plainly: SPR (Biacore), antibody captured, FcγR as analyte.
For experiment [13], the target named is T2, human FcγRIIb. Put plainly: SPR (Biacore), antibody captured, FcγR as analyte. This is another data set of the same source.
Experiment [14] has as its target T4, human FcγRIa. Nature of the experiment: SPR (Biacore), antibody captured, FcγR as analyte.
For experiment [15], the target named is T5, human FcγRIIa type H. Put plainly: SPR (Biacore), antibody captured, FcγR as analyte.
Experiment [16] concerns the target T6, human FcγRIIIa type V. Nature of the experiment: SPR (Biacore), antibody captured, FcγR as analyte.
The target in experiment [17] is T2, human FcγRIIb. Nature of the experiment: SPR (Biacore); ratio against parent IL6R-F11/IL6R-L.

T4 sequence (P12314 16-292 limits assumed): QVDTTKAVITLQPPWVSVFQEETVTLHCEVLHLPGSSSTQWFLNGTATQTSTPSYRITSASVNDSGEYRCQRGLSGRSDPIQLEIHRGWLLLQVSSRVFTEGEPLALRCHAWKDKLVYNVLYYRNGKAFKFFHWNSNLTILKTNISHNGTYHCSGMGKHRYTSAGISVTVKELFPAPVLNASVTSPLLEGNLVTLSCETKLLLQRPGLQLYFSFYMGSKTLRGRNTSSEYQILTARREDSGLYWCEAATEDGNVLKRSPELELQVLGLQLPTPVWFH

B1: antibody with mPM1H-mIgG1-mF3 heavy chain and L(WT)-CK light chain (antibody)
heavy: DVQLQESGPVLVKPSQSLSLTCTVTGYSITSDHAWSWIRQFPGNKLEWMGYISYSGITTYNPSLKSRISITRDTSKNQFFLQLNSVTTGDTSTYYCARSLARTTAMDYWGQGTSVTVSSAKTTPPSVYPLAPGSAAQTNSMVTLGCLVKGYFPEPVTVTWNSGSLSSGVHTFPAVLQSDLYTLSSSVTVPSSTWPSETVTCNVAHPASSTKVDKKIVPRDCGCKPCICTVPEVSSVFIFPPKPKDVLYITLEPKVTCVVVDISKDDPEVQFSWFVDDVEVHTAQTQPREEQFNSTFRSVSELPIMHQDWLNGKEFKCRVNSAAFPAPIEKTISKTKGRPKAPQVYTIPPPKEQMAKDKVSLTCMITDFFPEDITVEWQWNGQPAENYKNTQPIMDTDGSYFVYSKLNVQKSNWEAGNTFTCSVLHEGLKFHHTEKSLSHSPGK
light: not shown
notes: T252Y/T256E/H433K/N434F; copies: 2 + 2
On to B1, for which, in the experiment with mouse FcRn, binding was put at a Kd of 1.6 nM.

B2: IL6R-G1d/IL6R-L (antibody, human IgG1)
heavy: not shown
light: DIQMTQSPSSLSASVGDRVTITCRASQDISSYLNWYQQKPGKAPKLLIYYTSRLHSGVPSRFSGSGSGTDFTFTISSLQPEDIATYYCQQGNTLPYTFGQGTKVEIK
notes: Anti-human IL-6 receptor antibody with the G1d constant region (human IgG1 without the C-terminal Gly-Lys); also called IgG1; IgG1 (IL6R-G1d)
Regarding B2, the “relative KD for FcγRIIb (KD for IgG1/KD for each variant)” value in the experiment with human FcγRIIb [1] and with human FcγRIIb [11] was 1 each time. In the experiment with human FcγRIIb [2], the “KD(IIaR)/KD(IIb)” value is 0.4. Also, the “KD(IIaH)/KD(IIb)” value with human FcγRIIb [3] is 0.3. Further, the equilibrium dissociation constant (Kd) is 5300 nM with human FcγRIIb [4]; 5300 nM with human FcγRIIb [5]; 1000 nM with human FcγRIIa type R [12]; 2600 nM in the experiment with human FcγRIIb [13]; 0.32 nM in the experiment with human FcγRIa [14]; 670 nM in the experiment with human FcγRIIa type H [15]. In the experiment with human FcγRIIIa type V [16], this molecule returned a Kd of 350 nM. Moreover, the relative binding with human FcγRIIa type R [6] was determined as 650; with human FcγRIIb [7], 62; with human FcγRIa [8], 140; with human FcγRIIa type H [9], 1670; with human FcγRIIIa type V [10] it was 3350. Also, the “KD(IIb) of parent polypeptide/KD(IIb) of altered polypeptide” value with human FcγRIIb [17] is 2.6.
